Experimental data published in the nanobody polyreactivity screen of Harvey et al. (2022).

Test: yeast display, Sf9 membrane polyspecificity reagent, FACS + sequencing; frameworks hold sequencing errors
Procedure, shortened: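 Genes from sorted yeast were amplified by colony PCR, read by MiSeq 2 × 250 sequencing and filtered on CDR length. These cells carried a synthetic nanobody library in Saccharomyces cerevisiae BJ5465 and were sorted by FACS into low and high (top ~1%) gates on anti-HA and streptavidin fluorescence. Polyreactivity is labelled according to the gate of origin.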

| Sequence | polyreactivity (PSR sort gate) |
| --- | --- |
| QVQLVESGGGLVQAGGSLRLSCAASGSILYVNAMGWYRQATGKERELVAAITRTGGSTYYADSVKGRFTISRDNAKNTVYLQMNSLKPEDTAVYYCNAASSLPGYDYWGQGTQVTVSS | high polyreactivity |
| HVQLVESGVGLVQAGGSLRLSCAASGSTFDGYLMGWYRQAPGKERELVAAISRSGGSTYYADSVKGRFTIARDNAKNTVYLQMNSLKPEDTAVYYCAARNSPGLPGDYWGQGTQVTVSS | high polyreactivity |
| QVQLVESGGGIVQAGGSLRLSCAASGSTFAANAMGWYRPAPGKERELVAAITSGGGSTYYADSVKGRFTISRDNAKNTVYLQMNSLKPEDTAVYYCNAADWLETQVDLDYWGQGTQVTVSS | low polyreactivity |
| QVQLVESGGGLVQAGGSLRLSSAASGSTYVGYTMGWYRQAPGKERELVAAITRRSGSTYYAVSVKGRFTISRDNAKNTVYLQLNSLKPEDTAVYYCAKDFSRYSRVAHTEHDYWGQGTQVTVSS | high polyreactivity |
| QVQLVESGGGLVQAGGILRLSCAASGSTFYGYAMGWYRQAPGKERELVAAITRSGGSTYYADSVKGRFTISRDNAKNTVYLQMNSLKPEDTEVYYCNKYGYKGGVGYDYWGQGTQVTVSS | high polyreactivity |
| QVQLVESGGGLVQAGGSLRLICAASGNTFNFYAMGSYRQAPGKERELVAGISGSNTYYADSVKGRFTISRDNAKNTVYLQMNSLKPEDTAVYYCAKRAIWRYGYWGQGTQVTVSS | high polyreactivity |
| QVQLVESGGGLVQAGGSLRLSCAASGRIITKYTMGWYRQAPGKERELFAAISRSDRTNYADSVKGRFTISRDNAKNTVYLQMNSLKPEDTAVYYCNARHSYWTGRRVTDDYDYRGQGTQVTVSS | high polyreactivity |
| QVQLVESGGGLVQAGVSLRLSSAASGIIFAYYTMGWYRQAPGKERELVAAISWSGGSTYYADSVKGRFTISRDNAKNTVYLQMNSLKPEDTAVYYCAVVSRRTRLPYYYWGQGTQVTVSS | high polyreactivity |
| QVQLVESGGGLVQAGGSLRLSCAASGITFGYNTMGWYRQAPGKERELVAAISGSGGRTYYADSLKGRFTISRDNSKNTVYLQMNSLKPEDTAVYYCAARWPIWSSLYDYWGQGTQVTVSS | high polyreactivity |
| QVQHEESGRALVQAGGSLRLSCPPSGTTGIYAIGWYRQAPGKERELVAAITRRAGSTYYADSVKGRFTISRDNAKNRVYLLMTSLKPEDTAVYDCNATRGTATAYYYRWAGGYWGQGTQVTVSS | low polyreactivity |
| QVQLVESGGGLVQAGGSLRLSCAASGFTFVYYTMGWYRPAPRKVRELVAAISSSGGRTSYADSVKGLFTISRDNAKNTVYLQMNSLKPEDTAVYYCAARAYPTWRTYYYWGQGTQVTVSS | high polyreactivity |
| QVQLVESGGGLVQAGGSLSLSSAASGSTFHRNTMGWYRQAPGKERELVAGISLRGVRTYYADSVKGRFTISRDNAKNSVYLQMNSLKPEDTAVYYCAGGGPYTRNFKLGYWGQGTQVSVSS | high polyreactivity |
| QVQLVESGGGLVQAGGSLRLSCAASGSTITSNAMGWYRQAPGKERELVAAINTSGGSTYYADSVKGRFTISRDNAKNTVYLQMNSLKPEDTAVYYCNADYGGDEYRGLEFDYWGQGTQVTVSS | low polyreactivity |
| QVQLVESGGGLVQAGGSLRLSCAASGRTFWNYAMGWYRQAPGKERELVAAISSSGGTTYYADSVKGRFTISRDNAKNTVYLQMNSLKPEDTAVYYCAATGVSKPQRSFGYWGQGTQVTVSS | low polyreactivity |
| QVQIVESGGGLVQAGGSLRLSCAASGLIFYAYAMGWYRQAPGKERELVAAMSYSGGSTYYADSVKGRFTISRDLAKNTVYLQMNSLKPEDTAVYYCAADDGISTYEYWGQGTQVTVSS | high polyreactivity |
| QVQLVESGGGLVQAGGSLRLSCAASGRIFRYYAMGWYRPATGKERELVAGITRGGTTNYSDSVKGRFTISRDNAKNTVYLQMNSLKPEDTAVYYCAADTRRGIIGYDYWGQGTQVTVSS | high polyreactivity |
| QVQLVESGGGLVQAGGSLRLSCAASGSTFSGNARGWDRQAPGKERELVAAISRRGGSTNYADSVKGRFTISRDNAKYTVYLKMNSLKPEDTAVYYCNKGDYRSAYRHIEYGYWGQGTQVTVSS | low polyreactivity |
| QVQHVESGGGLVQAGCSLRLSCAASGRIFKPYVMGWYRQAPGKETELVSAISWSGGASTYYADSVKGRFTISRDNAKNTVYLQMNSLKPEDTAVYYCAADPFTIPTSEFYYWGQGTQVTVSS | low polyreactivity |
| QVQRVESGVGLVQAGGSLRLRCAASGSIFQSYAMGWYRHAPGKERELVAAITERGGSTYYADSVKGRFTISRDNAKNTVYLQMNSLKPEDTAVYYCAAKAVGLGKSWRGDDYWGQRTQVTVSS | low polyreactivity |
| QVQLVESGGGLVQAGGSLRLSCAASGSIFPTYAMGWYRQAPGKERELVAAISWDGDITYYADSVKGRFTISRDHAKNTVYLQMNSLKPEDTAVYYCNASLFIEIYSFQYDDHFAEYGYWGQGTQVTVSS | high polyreactivity |
| QVQLVESGGGLVQAGGSLRLSCAASGLIFDPNTMGWYRQAPGKERELVAAISSGGDTNYADSVKGRFTISRDNAKNTVYLQMNSLKPEDTAVYYCATDIRFHDPSEYEGVDFEFWGQGTQVTVSS | low polyreactivity |
